This is an account of results in IntAct's records for PubMed 12050133.

The chains are these.
B1: Homeobox protein SIX3 (Mus musculus), Q62233 (parent)
chain: MVFRSPLDLYSSHFLLPNFADSHHCSLLLASSGGGSGASGGGGGAGGGGGGNRAGGGGAGGAGGGSGGGGSRAPPEELSMFQLPTLNFSPEQVASVCETLEETGDIERLGRFLWSLPVAPGACEAINKHESILRARAVVAFHTGNFRDLYHILENHKFTKESHGKLQAMWLEAHYQEAEKLRGRPLGPVDKYRVRKKFPLPRTIWDGEQKTHCFKERTRSLLREWYLQDPYPNPSKKRELAQATGLTPTQVGNWFKNRRQRDRAAAAKNRLQHQAIGPSGMRSLAEPGCPTHGSAESPSTAASPTTSVSSLTERADTGTSILSVTSSDSECDV

Variants of B1 are the subject of the test. The settings on record: with tle4_mouse Tle4, Q62441.
Chain of tle4_mouse Tle4, Q62441 (Q62441 whole entry): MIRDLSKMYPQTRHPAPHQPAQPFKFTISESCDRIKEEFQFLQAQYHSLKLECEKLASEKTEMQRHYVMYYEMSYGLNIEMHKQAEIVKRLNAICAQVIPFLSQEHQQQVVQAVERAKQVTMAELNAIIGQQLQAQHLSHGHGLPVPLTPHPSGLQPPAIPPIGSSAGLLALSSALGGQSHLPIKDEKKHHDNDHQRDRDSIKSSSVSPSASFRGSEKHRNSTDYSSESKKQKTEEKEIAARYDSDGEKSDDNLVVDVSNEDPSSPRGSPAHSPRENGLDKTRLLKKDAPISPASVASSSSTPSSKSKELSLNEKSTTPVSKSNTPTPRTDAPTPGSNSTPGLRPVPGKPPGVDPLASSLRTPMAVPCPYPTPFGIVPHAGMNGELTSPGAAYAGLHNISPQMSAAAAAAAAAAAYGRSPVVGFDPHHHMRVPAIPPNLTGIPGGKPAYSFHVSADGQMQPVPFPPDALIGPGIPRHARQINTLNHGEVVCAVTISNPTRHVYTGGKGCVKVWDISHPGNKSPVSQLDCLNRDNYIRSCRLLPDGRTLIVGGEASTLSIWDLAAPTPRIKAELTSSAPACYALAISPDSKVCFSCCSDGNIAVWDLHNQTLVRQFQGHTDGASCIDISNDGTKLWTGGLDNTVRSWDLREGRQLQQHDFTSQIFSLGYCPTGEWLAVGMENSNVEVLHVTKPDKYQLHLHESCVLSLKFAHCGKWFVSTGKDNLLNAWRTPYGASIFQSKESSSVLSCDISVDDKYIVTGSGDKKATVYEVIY
In the case of MVFRSPLDLYSSHFLLPNFADSHHCSLLLASSGGGSGASGGGGGAGGGGGGNRAGGGGAGGAGGGSGGGGSRAPPEELSMFQLPTLNESPEQVASVCETLEETGDIERLGRFLWSLPVAPGACEAINKHESILRARAVVAFHTGNFRDLYHILENHKFTKESHGKLQAMWLEAHYQEAEKLRGRPLGPVDKYRVRKKFPLPRTIWDGEQKTHCFKERTRSLLREWYLQDPYPNPSKKRELAQATGLTPTQVGNWFKNRRQRDRAAAAKNRLQHQAIGPSGMRSLAEPGCPTHGSAESPSTAASPTTSVSSLTERADTGTSILSVTSSDSECDV [F88E], the “effect of a mutation on the interaction” value is given as “decreasing interaction”.
